# Laboratory results from patent US20240132485A1, “HETEROCYCLIC CULLIN RING UBIQUITIN LIGASE COMPOUNDS AND USES THEREOF” (CEMM - FORSCHUNGSZENTRUM FÜR MOLEKULARE MEDIZIN GMBH, priority 2020, published 2024).
# pEC50: −log10 of the molar value.
# Tests used:
# [1] = target: Nanoluc_DDB1 (N-terminal Nanoluc luciferase, G4S linker, DDB1 (FL)) (UniProt Q16531); assay: NanoBRET in HEK293T cells, 10 µM compound Example 3-34; class C = 2-3 fold increase
# [2] = target: Nanoluc_DDB1 (N-terminal Nanoluc luciferase, G4S linker, DDB1 (FL)) (UniProt Q16531); assay: NanoBRET in HEK293T cells, 10 µM compound Example 3-37; class C = 2-3 fold increase
# [3] = target: Nanoluc_DDB1 (N-terminal Nanoluc luciferase, G4S linker, DDB1 (FL)) (UniProt Q16531); assay: NanoBRET in HEK293T cells, 10 µM compound Example 3-55; class B = 3-4 fold increase
# [4] = target: Nanoluc_DDB1 (N-terminal Nanoluc luciferase, G4S linker, DDB1 (FL)) (UniProt Q16531); assay: NanoBRET in HEK293T cells, 10 µM compound Example 3-33; class A = greater than 4-fold increase
# [5] = target: Nanoluc_DDB1 (N-terminal Nanoluc luciferase, G4S linker, DDB1 (FL)) (UniProt Q16531); assay: NanoBRET in HEK293T cells, 10 µM compound Example 3-1; class B = 3-4 fold increase
# [6] = target: Nanoluc_DDB1 (N-terminal Nanoluc luciferase, G4S linker, DDB1 (FL)) (UniProt Q16531); assay: NanoBRET in HEK293T cells, 10 µM compound Example 3-2; class B = 3-4 fold increase
# [7] = target: Nanoluc_DDB1 (N-terminal Nanoluc luciferase, G4S linker, DDB1 (FL)) (UniProt Q16531); assay: NanoBRET in HEK293T cells, 10 µM compound Example 3-41; class C = 2-3 fold increase
# [8] = target: Nanoluc_DDB1 (N-terminal Nanoluc luciferase, G4S linker, DDB1 (FL)) (UniProt Q16531); assay: NanoBRET in HEK293T cells, 10 µM compound Example 3-46; class B = 3-4 fold increase
# [9] = target: Nanoluc_DDB1 (N-terminal Nanoluc luciferase, G4S linker, DDB1 (FL)) (UniProt Q16531); assay: NanoBRET in HEK293T cells, 10 µM compound Example 3-10; class C = 2-3 fold increase
# [10] = target: Nanoluc_DDB1 (N-terminal Nanoluc luciferase, G4S linker, DDB1 (FL)) (UniProt Q16531); assay: NanoBRET in HEK293T cells, 10 µM compound Example 3-45; class A = greater than 4-fold increase
# [11] = target: Nanoluc_DDB1 (N-terminal Nanoluc luciferase, G4S linker, DDB1 (FL)) (UniProt Q16531); assay: NanoBRET in HEK293T cells, 10 µM compound Example 3-35; class A = greater than 4-fold increase
# [12] = target: Nanoluc_DDB1 (N-terminal Nanoluc luciferase, G4S linker, DDB1 (FL)) (UniProt Q16531); assay: NanoBRET in HEK293T cells, 10-point titration of compound Example 3-66; class A = EC50<=0.25 µM
# [13] = target: Nanoluc_DDB1 (N-terminal Nanoluc luciferase, G4S linker, DDB1 (FL)) (UniProt Q16531); assay: NanoBRET in HEK293T cells, 10 µM compound Example 3-25; class B = 3-4 fold increase
# [14] = target: Nanoluc_DDB1 (N-terminal Nanoluc luciferase, G4S linker, DDB1 (FL)) (UniProt Q16531); assay: NanoBRET in HEK293T cells, 10 µM compound Example 3-53; class B = 3-4 fold increase
# [15] = target: Nanoluc_DDB1 (N-terminal Nanoluc luciferase, G4S linker, DDB1 (FL)) (UniProt Q16531); assay: NanoBRET in HEK293T cells, 10 µM compound Example 3-23; class B = 3-4 fold increase
# [16] = target: Nanoluc_DDB1 (N-terminal Nanoluc luciferase, G4S linker, DDB1 (FL)) (UniProt Q16531); assay: NanoBRET in HEK293T cells, 10 µM compound Example 3-8; class A = greater than 4-fold increase
# [17] = target: Nanoluc_DDB1 (N-terminal Nanoluc luciferase, G4S linker, DDB1 (FL)) (UniProt Q16531); assay: NanoBRET in HEK293T cells, 10-point titration of compound Example 3-3; class E = >10 µM
# [18] = target: Nanoluc_DDB1 (N-terminal Nanoluc luciferase, G4S linker, DDB1 (FL)) (UniProt Q16531); assay: NanoBRET in HEK293T cells, 10 µM compound Example 3-29; class B = 3-4 fold increase
# [19] = target: Nanoluc_DDB1 (N-terminal Nanoluc luciferase, G4S linker, DDB1 (FL)) (UniProt Q16531); assay: NanoBRET in HEK293T cells, 10 µM compound Example 3-65; class B = 3-4 fold increase
# [20] = target: Nanoluc_DDB1 (N-terminal Nanoluc luciferase, G4S linker, DDB1 (FL)) (UniProt Q16531); assay: NanoBRET in HEK293T cells, 10 µM compound Example 3-38; class B = 3-4 fold increase
# [21] = target: Nanoluc_DDB1 (N-terminal Nanoluc luciferase, G4S linker, DDB1 (FL)) (UniProt Q16531); assay: NanoBRET in HEK293T cells, 10 µM compound Example 3-52; class A = greater than 4-fold increase
# [22] = target: Nanoluc_DDB1 (N-terminal Nanoluc luciferase, G4S linker, DDB1 (FL)) (UniProt Q16531); assay: NanoBRET in HEK293T cells, 10-point titration of compound Example 3-22; class E = >10 µM
# [23] = target: Nanoluc_DDB1 (N-terminal Nanoluc luciferase, G4S linker, DDB1 (FL)) (UniProt Q16531); assay: NanoBRET in HEK293T cells, 10 µM compound Example 3-31; class C = 2-3 fold increase
# [24] = target: Nanoluc_DDB1 (N-terminal Nanoluc luciferase, G4S linker, DDB1 (FL)) (UniProt Q16531); assay: NanoBRET in HEK293T cells, 10 µM compound Example 3-13; class B = 3-4 fold increase
# [25] = target: Nanoluc_DDB1 (N-terminal Nanoluc luciferase, G4S linker, DDB1 (FL)) (UniProt Q16531); assay: NanoBRET in HEK293T cells, 10 µM compound Example 3-62; class A = greater than 4-fold increase
# [26] = target: Nanoluc_DDB1 (N-terminal Nanoluc luciferase, G4S linker, DDB1 (FL)) (UniProt Q16531); assay: NanoBRET in HEK293T cells, 10 µM compound Example 3-61; class A = greater than 4-fold increase
# Sequence of Nanoluc_DDB1 (N-terminal Nanoluc luciferase, G4S linker, DDB1 (FL)) (Q16531 other isoform, or with tags, fused parts or gaps): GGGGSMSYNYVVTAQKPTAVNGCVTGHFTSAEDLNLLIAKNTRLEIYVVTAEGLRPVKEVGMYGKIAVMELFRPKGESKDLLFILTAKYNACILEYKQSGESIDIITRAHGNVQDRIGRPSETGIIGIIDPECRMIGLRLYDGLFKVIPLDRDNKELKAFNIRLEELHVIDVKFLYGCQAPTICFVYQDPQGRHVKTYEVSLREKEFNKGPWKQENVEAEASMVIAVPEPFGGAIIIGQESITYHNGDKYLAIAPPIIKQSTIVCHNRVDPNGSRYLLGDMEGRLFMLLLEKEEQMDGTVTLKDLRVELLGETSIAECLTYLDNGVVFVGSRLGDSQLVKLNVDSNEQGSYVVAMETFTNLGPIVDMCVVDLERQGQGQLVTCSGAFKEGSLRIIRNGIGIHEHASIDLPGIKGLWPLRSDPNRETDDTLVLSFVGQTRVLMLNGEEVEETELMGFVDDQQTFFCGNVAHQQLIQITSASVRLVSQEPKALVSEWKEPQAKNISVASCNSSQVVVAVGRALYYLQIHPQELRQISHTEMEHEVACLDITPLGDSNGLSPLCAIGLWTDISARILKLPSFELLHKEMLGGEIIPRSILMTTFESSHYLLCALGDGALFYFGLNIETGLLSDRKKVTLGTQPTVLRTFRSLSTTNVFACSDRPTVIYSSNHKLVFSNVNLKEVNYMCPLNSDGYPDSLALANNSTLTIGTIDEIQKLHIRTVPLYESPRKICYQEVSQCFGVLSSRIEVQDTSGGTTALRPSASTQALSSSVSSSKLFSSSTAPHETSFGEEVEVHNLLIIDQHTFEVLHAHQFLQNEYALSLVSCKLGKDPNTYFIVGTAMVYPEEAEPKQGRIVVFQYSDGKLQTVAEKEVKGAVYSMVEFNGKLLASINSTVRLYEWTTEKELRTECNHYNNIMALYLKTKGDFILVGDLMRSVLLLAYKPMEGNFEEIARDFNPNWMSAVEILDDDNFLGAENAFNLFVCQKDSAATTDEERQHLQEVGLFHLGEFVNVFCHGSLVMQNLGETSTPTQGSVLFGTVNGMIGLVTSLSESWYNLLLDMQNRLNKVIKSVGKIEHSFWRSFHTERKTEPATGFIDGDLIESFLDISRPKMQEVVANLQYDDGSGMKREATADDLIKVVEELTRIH
substance,measurement,setting,value
"HaloTag_CDK12 (N-terminal HaloTag, G4S linker, CDK12 (713-1052)) (from UniProt Q9NYV4 713-1052) (enzyme)",NanoBRET fold increase,[1],2 to 3 fold
same,NanoBRET fold increase,[2],2 to 3 fold
same,NanoBRET fold increase,[3],3 to 4 fold
same,NanoBRET fold increase,[4],> 4 fold
same,NanoBRET fold increase,[5],3 to 4 fold
same,NanoBRET fold increase,[6],3 to 4 fold
same,NanoBRET fold increase,[7],2 to 3 fold
same,NanoBRET fold increase,[8],3 to 4 fold
same,NanoBRET fold increase,[9],2 to 3 fold
same,NanoBRET fold increase,[10],> 4 fold
same,NanoBRET fold increase,[11],> 4 fold
same,pEC50,[12],> 6.60
same,NanoBRET fold increase,[13],3 to 4 fold
same,NanoBRET fold increase,[14],3 to 4 fold
same,NanoBRET fold increase,[15],3 to 4 fold
same,NanoBRET fold increase,[16],> 4 fold
same,pEC50,[17],< 5.00
same,NanoBRET fold increase,[18],3 to 4 fold
same,NanoBRET fold increase,[19],3 to 4 fold
same,NanoBRET fold increase,[20],3 to 4 fold
same,NanoBRET fold increase,[21],> 4 fold
same,pEC50,[22],< 5.00
same,NanoBRET fold increase,[23],2 to 3 fold
same,NanoBRET fold increase,[24],3 to 4 fold
same,NanoBRET fold increase,[25],> 4 fold
same,NanoBRET fold increase,[26],> 4 fold
